These results are taken from US20200121783A1.

As a reminder, the EC50 (read off the curve) is the midpoint of the concentration-response curve. Low readings indicate higher potency in that assay, high ones lower potency in that assay.

This assay concerns the target eOD-GT8 60 mer (Aquifex aeolicus; HIV-1). Briefly: ELISA, antibody titration. For orientation: An ELISA detects its analyte on a solid surface through an enzyme-linked reagent.

VRC01 (antibody) came in with an EC50 (read off the curve) of 0.2 µg/mL.

The substance “VRC-PG04g1 (v-gene germline revertant of VRC-PG04) (antibody)” gave an EC50 (read off the curve) of 0.5 µg/mL.
